In article PMC10540216, “Activity Guided Azide-methyllysine Photo-trapping for Substrate Profiling of Lysine Demethylases” (Journal of the American Chemical Society, 2023):
Values belong to the binder of their own block, whether it stands above or below them. Where no end group is shown, it is not given here.

Target: T1, CBX1 chromodomain
T1 construct: Chromodomain of Chromobox protein 1 (CBX1); Expression, purification and construct limits are in the Supporting Information; also called Chromobox protein 1
Assay: ITC; CBX1 chromodomain and eIF4A3 K374me0/1/2/3 peptides
Conditions: both partners purified

Kd: 23.2 ± 2 µM
B1: eIF4A3-K374me3 peptide 13 (peptide)
chain: GRSGRYGRKGVAINFVK
modifications: also: trimethyllysine at K374

Kd: 95.2 ± 1.4 µM
B2: eIF4A3-K374me2 peptide 23 (peptide)
chain: GRSGRYGRKGVAINFVK
modifications: also: dimethyllysine at K374
